Experimental data published in patent publication US20120277143A1 (Janssen / Centocor, published 2012).

Experiments:
human IL13 [1] = target: T1, human IL13 (human, UniProt P35225 35-146, biotinylated in the SPR assays (sites not given)); assay: cell-based or functional assay
human IL4 [2] = target: T2, human IL4 (human, UniProt P05112 25-153, biotinylated in the SPR and competition assays (sites not given)); assay: cell-based or functional assay
T2 sequence: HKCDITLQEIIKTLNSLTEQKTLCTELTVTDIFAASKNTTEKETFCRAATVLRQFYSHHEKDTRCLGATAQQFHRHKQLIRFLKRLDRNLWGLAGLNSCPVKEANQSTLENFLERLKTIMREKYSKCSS

human IL4 [3] = target: T2, human IL4; assay: Affinity to IL4; method not re-described
human IL13 [4] = target: T1, human IL13; assay: Affinity to IL13; method not re-described
human IL4 [5] = target: T2, human IL4; assay: IL4R binding inhibition; repeats Table 17
Experimental: AR protein inhibition of IL4 binding to IL4 RA was assessed using IL4 RA-Fc (R&D Systems), comprising the Gly24-His232 which represents the ECD (SEQ ID NO: 5) fused to a human IgGl-Fc and therefor a disulfide linked homodimer. The protein was conjugated to carboxylated Luminex microspheres according to the manufacturer's protocol. For neutralization experiments, 5000 IL4RA-Fc conjugated beads in 50 μl were added to each well of a 96-well filter plate (Millipore). Biotinylated human IL4 was mixed with an appropriate dilution of AR protein in Luminex Assay Buffer (PBS, 1% BSA, pH 7.4) to give a final concentration of 67 pM IL4. The plate was incubated for 1 hour at RT in the dark on a plate shaker, set to shake vigorously to avoid bead aggregation. The plate was washed twice with 150 μl of wash buffer (PBS, 0.1% BSA, pH 7.4, 0.05% Tween-20) using a vacuum manifold followed by the addition of 50 μl of Streptavidin PE at 25 μg/ml and incubated at RT for 20 minutes. The plates were washed again and 150 μl of sheath fluid was added and the plate was placed on the shaker for 5 minute. Plates were read using a Luminex® 100 system; data were plotted as a function of AR protein concentration. IC₅₀ values were determined by fitting the data to the equation for sigmoidal dose response using PRISM software (GraphPAD PRISM) (Table 6).

human IL13 R130Q [6] = target: T3, human IL13 R130Q (human, UniProt P35225 35-146, biotinylated (sites not given)); assay: IL13Ra2 binding inhibition; repeats Table 17
T3 construct: Peprotech; also called IL13R13Q; R111Q
Experimental: (§1) Binding protein inhibition of IL13 binding to Rα2 was assessed using IL13Rα2-Fc (R&D Systems) conjugated to carboxylated Luminex microspheres according to the manufacturer's protocol. For biotinylation of IL13, recombinant human IL13 R130Q (Peprotech) was biotinylated at a 4:1 ratio using EZ-Link NHS-LC-Biotin (Pierce, #21336) for 2 hours at RT. The protein was dialyzed in PBS overnight to remove excess biotinylation reagent. For neutralization experiments, 5000 IL13 Rα2-Fc conjugated beads in 50 μl were added to each well of a 96-well filter plate (Millipore). 50 μl of biotinylated human IL13 at 1 ng/ml (80 pM) was mixed with an appropriate dilution of binding protein in Luminex Assay Buffer (PBS, 1% BSA, pH 7.4). The plate was incubated for 1 hour at RT in the dark on a plate shaker, set to shake vigorously to avoid bead aggregation. The plate was washed 3 times with 150 μl of wash buffer (PBS, 1% BSA, pH 7.4, 0.05% Tween-20) using a vacuum manifold followed by the addition of 50 μl of Streptavidin PE at 25 μg/ml and incubated at RT for 20 minutes. The plates were washed again and 100 μl of sheath fluid was added and the plate was placed on the shaker for 1 minute. Plates were read using a Luminex® 100 system; data were plotted as a function of binding protein concentration. IC₅₀ values were determined by fitting the data to the equation for sigmoidal dose response using PRIZM software (GraphPAD PRIZM).

human IL4 [7] = target: T2, human IL4; assay: IL4RA binding inhibition; assay not re-described (Luminex of Example 2)
human IL13 R130Q [8] = target: T3, human IL13 R130Q; assay: IL13Ra2 binding inhibition; assay not re-described (Luminex of Example 2)
Experimental: as §1

human IL13 [9] = target: T1, human IL13; assay: cell-based or functional assay; remark: listed apart in the source
cyno IL13 = cyno IL13 (cynomolgus monkey, UniProt Q0PW92 21-132); assay: cell-based or functional assay
human IL13 [10] = target: T1, human IL13; assay: SPR BIAcore, biotin-IL13 on SA chip, global fit
Experimental: Recombinant human IL13 (Peprotech) was minimally biotinylated on ice using sulfo-NHS-LCLC-Biotin and desalted into the experimental running buffer containing 10 mM HEPES, 150 mM NaCl, pH 7.4, 0.01% Tween-20, and 0.1 mg/mL BSA. Biotinylated IL13 was captured at three different surface densities (from about 150, 50, and 25 RU) onto three different BIAcore SA (streptavidin) sensor chips. Each binding protein sample was tested at 40 nM as the highest concentration in a 3-fold dilution series over the three different density IL13 surfaces. The dissociation phase for the highest concentration of the binding protein sample was monitored for one hour. The response data from each of the different density surfaces was globally fitted in order to extract estimates of the kinetic and affinity constants which are provided in Table 7 below.

human IL13 R130Q [11] = target: T3, human IL13 R130Q; assay: Luminex competition, 80 pM biotin-IL13 R130Q binding to IL13Ra2-Fc beads
Experimental: as §1

human IL13 [12] = target: T1, human IL13; assay: SPR ProteOn, biotin-hIL13 on streptavidin, 1:1 global fit
Experimental: Complete kinetic data describing binding of various engineered binding protein molecules to human IL13 was measured using a method similar to that described above for the single point affinity analysis. Briefly, streptavidin (Pierce) was immobilized to similar levels (˜1800 RUs) on all six channels of a ProteOn GLC chip via amine coupling (pH 5.0). Biotinylated hIL13 was captured at different surface densities (600˜100 RUs) on different channels. Protein binding was tested starting at 40 nM diluted in a 3-fold concentration series over the different density IL13 surfaces; a buffer sample was injected to monitor the baseline stability. Dissociation phases for all concentrations of each binding protein sample were monitored for one hour at a flow rate of 100 μl/min. Response data for all concentration series from the different density surfaces were globally fit to a 1:1 simple langmuir binding model to extract values of the kinetic (kₒₙ, koff) and affinity (KD) constants provided in Table 16.

T3 sequence (P35225 35-146 limits assumed, stated change not applied): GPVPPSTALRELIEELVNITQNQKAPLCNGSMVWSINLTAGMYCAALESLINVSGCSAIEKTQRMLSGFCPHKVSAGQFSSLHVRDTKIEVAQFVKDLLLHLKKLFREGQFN
T1 sequence (P35225 other isoform, or with tags, fused parts or gaps limits assumed): as the sequence (P35225 35-146 limits assumed, stated change not applied) above, with Q110R counted along it
Sequence of cyno IL13 (Q0PW92 entry or part of it): as the sequence (P35225 35-146 limits assumed, stated change not applied) above, with G1S, R10K, M42V, S67N, H83R, L100V counted along it

B1: C06_44C12_V2_C01_6G9_V1 (designed binder)
chain: DLGKKLLEAASAGQDDEVHILMANGADVNALDDSGYTPLHLAAEDGHLEIVEVLLKHGADVNAADRLGDTPLHLAAFVGHLEIVEVLLKAGADVNAVDLAGVTPLHVAAFYGHLEIVEVLLKAGADVNAQDKFGKTAFDISIDNGNEDLAEILQKLNGGGGSGGGGSGGGGSGGGGSDLDKKLLEAARAGQDDEVRILMANGADVNARDSYGSTPLHLAAREGHLEIVEVLLKYGADVNAADFIGDTPLHLAAYRGHLEIVEVLLKYGADVNASDITGETPLHLAAQIGHLEIVEVLLKHGADVNAQDKFGKTAFDISIDNGNEDLAEILQKLN
notes: bispecific IL4/IL13 ankyrin repeat protein with (GGGGS)4 linker; also called bispecific AR protein
- A549/TARC IL13 IC50 (human IL13 [1]): 0.063 nM
- HEK Stat6 human IL13 IC50 (human IL13 [1]): 0.014 nM
- A549/TARC IL4 IC50 (human IL4 [2]): 0.016 nM
- HEK stat6 hIL4 IC50 (human IL4 [2]): 0.0007 nM
- Ramos Assay IC50 (human IL4 [2]): 0.0058 nM
- Kd (human IL4 [3]): 0.0017 nM
- Kd (human IL13 [4]): 0.0116 nM
- IC50 (human IL4 [5]): 0.017 nM
- IC50 (human IL13 R130Q [6]): 0.028 nM
- IC50 (human IL4 [7]): 0.017 nM
- IC50 (human IL13 R130Q [8]): 0.028 nM

B2: 7D7 (designed binder)
chain: DLGKKLLEAARAGQDDEVRILMANGADVNATDTYGSTPLHLAARHCHQEIVEVLLKHGADVNANDFIGDTPLHLAAWHGHLEIVEVLLKNGADVNAMDVTGETPLHLAAYHGHLDIVEVLLKNGADVNAQDKFGKTAFDISIDNGNEDLAEILQKLN
notes: N-Cap-(AR)3-C-Cap
- STAT6 Phospho IC50 (human IL13 [9]): 0.0105 nM
- TARC expression IC50 (human IL13 [9]): 0.354 nM
- Cyno IL13 STAT6 IC50 (cyno IL13): 0.162 nM
- Kd (human IL13 [10]): 0.204 nM
- koff (human IL13 [10]): 6.25e-05 s⁻¹
- IC50 (human IL13 R130Q [11]): 0.058 nM

B3: C06_28E5_V1_C01_6G9_V1 (designed binder)
chain: DLGKKLLEAARAGQDDEVRILMANGADVNAADDSGITPLHLAAEDGHLEIVEVLLKAGADVNAQDNLGDTPLHLAAWTGHLEIVEVLLKAGADVNAYDISGITPLHLAAFYGHLEIVEVLLKHGADVNAQDKFGKTAFDISIDNGNEDLAEILQKLNGGGGSGGGGSGGGGSGGGGSDLDKKLLEAARAGQDDEVRILMANGADVNARDSYGSTPLHLAAREGHLEIVEVLLKYGADVNAADFIGDTPLHLAAYRGHLEIVEVLLKYGADVNASDITGETPLHLAAQIGHLEIVEVLLKHGADVNAQDKFGKTAFDISIDNGNEDLAEILQKLN
notes: as for B1
- A549/TARC IL13 IC50 (human IL13 [1]): 0.084 nM
- HEK Stat6 human IL13 IC50 (human IL13 [1]): 0.019 nM
- A549/TARC IL4 IC50 (human IL4 [2]): 0.039 nM
- HEK stat6 hIL4 IC50 (human IL4 [2]): 0.0011 nM
- Ramos Assay IC50 (human IL4 [2]): 0.0054 nM
- Kd (human IL4 [3]): 0.0217 nM
- Kd (human IL13 [4]): 0.0106 nM
- IC50 (human IL4 [5]): 0.025 nM
- IC50 (human IL13 R130Q [6]): 0.036 nM
- IC50 (human IL4 [7]): 0.025 nM
- IC50 (human IL13 R130Q [8]): 0.036 nM

B4: C01_6G9_V1_C06_44C12_V2 (designed binder)
chain: DLDKKLLEAARAGQDDEVRILMANGADVNARDSYGSTPLHLAAREGHLEIVEVLLKYGADVNAADFIGDTPLHLAAYRGHLEIVEVLLKYGADVNASDITGETPLHLAAQIGHLEIVEVLLKHGADVNAQDKFGKTAFDISIDNGNEDLAEILQKLNGGGGSGGGGSGGGGSGGGGSDLGKKLLEAASAGQDDEVHILMANGADVNALDDSGYTPLHLAAEDGHLEIVEVLLKHGADVNAADRLGDTPLHLAAFVGHLEIVEVLLKAGADVNAVDLAGVTPLHVAAFYGHLEIVEVLLKAGADVNAQDKFGKTAFDISIDNGNEDLAEILQKLN
notes: bispecific IL13/IL4 ankyrin repeat protein with (GGGGS)4 linker; also called bispecific AR protein
- A549/TARC IL13 IC50 (human IL13 [1]): 0.128 nM
- HEK Stat6 human IL13 IC50 (human IL13 [1]): 0.015 nM
- A549/TARC IL4 IC50 (human IL4 [2]): 0.055 nM
- HEK stat6 hIL4 IC50 (human IL4 [2]): 0.0072 nM
- Ramos Assay IC50 (human IL4 [2]): 0.0086 nM
- Kd (human IL4 [3]): 0.002 nM
- Kd (human IL13 [4]): 0.0091 nM
- IC50 (human IL4 [5]): 0.025 nM
- IC50 (human IL13 R130Q [6]): 0.023 nM
- IC50 (human IL4 [7]): 0.025 nM
- IC50 (human IL13 R130Q [8]): 0.023 nM

B5: C01_6G9_V1_C06_53G6_V1 (designed binder)
chain: DLDKKLLEAARAGQDDEVRILMANGADVNARDSYGSTPLHLAAREGHLEIVEVLLKYGADVNAADFIGDTPLHLAAYRGHLEIVEVLLKYGADVNASDITGETPLHLAAQIGHLEIVEVLLKHGADVNAQDKFGKTAFDISIDNGNEDLAEILQKLNGGGGSGGGGSGGGGSGGGGSDLGKKLLEAARAGQDDEVRILMANGADVNATDDWGDTLLHLAATDGHLEIVEVLLKAGADVNANDAIGDTPLHLAALYGHLEIVEVLLKYGADVNATDLHGFTPLHLAAFWGHLEIVEVLLKHGADVNAQDKFGKTAFDISIDNGNEDLAEILQKLN
notes: as for B4
- A549/TARC IL13 IC50 (human IL13 [1]): 0.075 nM
- HEK Stat6 human IL13 IC50 (human IL13 [1]): 0.015 nM
- A549/TARC IL4 IC50 (human IL4 [2]): 0.024 nM
- HEK stat6 hIL4 IC50 (human IL4 [2]): 0.0005 nM
- Ramos Assay IC50 (human IL4 [2]): 0.0048 nM
- Kd (human IL4 [3]): 0.0031 nM
- Kd (human IL13 [4]): 0.0093 nM
- IC50 (human IL4 [5]): 0.015 nM
- IC50 (human IL13 R130Q [6]): 0.099 nM
- IC50 (human IL4 [7]): 0.015 nM
- IC50 (human IL13 R130Q [8]): 0.099 nM

B6: 9F8 (designed binder)
chain: DLGKKLLEAARAGQDDEVRILMANGADVNASDIFGSTPLHLAARHGHLEIVEVLLKYGADVNAMDFIGDTPLHLAAYRGHLEIVEVLLKYGVDVNADDHGDTPLHLAASMGHLEIVEVLLKNGADVNAQDKFGKTAFDISIDNGNEDLAEILQKLN
notes: ankyrin repeat protein
- STAT6 Phospho IC50 (human IL13 [9]): 0.055 nM
- Kd (human IL13 [10]): 0.11 nM
- koff (human IL13 [10]): 9.9e-05 s⁻¹
- kon (human IL13 [10]): 930000 M⁻¹ s⁻¹
- Kd (human IL13 [12]): 0.00164 nM
